Where two headings read alike, the source gives them in different places.
What was measured:
[1] = target: Malic enzyme Mae1 from Haloferax volcanii, recombinant (Haloferax volcanii); assay: SEC; Superdex 200 HiLoad column (1.6 x 60 cm), flow rate 1 ml per min, calibrated with HMW and LMW kits (GE Healthcare); native mass compared with the subunit mass by SDS-PAGE; 50 mM Tris-HCl, pH 7.5, 1.5 M KCl
purified protein [2] = substrate: O=C(O)C[C@H](O)C(=O)O; assay: purified protein; conditions: NADP+, MnCl2, 4 M KCl, pH 5.75, 42°C, pH 5.75
purified protein [3] = substrate: NC(=O)C1=CN([C@@H]2O[C@H](COP(=O)(O)OP(=O)(O)OC[C@H]3O[C@@H](n4cnc5c(N)ncnc54)[C@H](OP(=O)(O)O)[C@@H]3O)[C@@H](O)[C@H]2O)C=CC1; assay: purified protein; assay type: biochemical, Haloferax volcanii; conditions: reverse reaction, pyruvate, NaHCO3, MnCl2, 4 M KCl, pH 5.75, 42°C, varied: cofactor
purified protein [4] = substrate: NC(=O)c1ccc[n+]([C@@H]2O[C@H](COP(=O)(O)OP(=O)(O)OC[C@H]3O[C@@H](n4cnc5c(N)ncnc54)[C@H](OP(=O)(O)O)[C@@H]3O)[C@@H](O)[C@H]2O)c1; assay: purified protein; assay type: biochemical, Haloferax volcanii; conditions: L-malate, MnCl2, 4 M KCl, pH 5.75, 42°C, varied: cofactor
purified protein [5] = substrate: CC(=O)O; assay: purified protein; conditions: acetate activation, ATP, CoA
purified protein [6] = substrate: CC(=O)SCCNC(=O)CCNC(=O)[C@H](O)C(C)(C)COP(=O)(O)OP(=O)(O)OC[C@H]1O[C@@H](n2cnc3c(N)ncnc32)[C@H](O)[C@@H]1OP(=O)(O)O; assay: purified protein; assay type: biochemical, Haloferax volcanii; conditions: acetate formation (reverse), AMP, PPi, MgCl2, 2 M KCl, pH 7.0, 42°C
purified protein [7] = substrate: CC(C)(COP(=O)(O)OP(=O)(O)OC[C@H]1O[C@@H](n2cnc3c(N)ncnc32)[C@H](O)[C@@H]1OP(=O)(O)O)[C@@H](O)C(=O)NCCC(=O)NCCS; assay: purified protein; assay type: biochemical, Haloferax volcanii; conditions: acetate activation, ATP, CoA
purified protein [8] = substrate: Nc1ncnc2c1ncn2[C@@H]1O[C@H](COP(=O)(O)OP(=O)(O)OP(=O)(O)O)[C@@H](O)[C@H]1O; assay: purified protein; assay type: biochemical, Haloferax volcanii; conditions: acetate activation, ATP, CoA
[9] = target: the molecule itself; assay: SEC; Superdex 200 HiLoad column (1.6 x 60 cm), flow rate 1 ml per min, calibrated with HMW and LMW kits (GE Healthcare); native mass compared with the subunit mass by SDS-PAGE; 50 mM Tris-HCl, pH 7.5, 1.5 M KCl
[10] = target: the molecule itself; assay: as above; remark: listed apart in the source
[11] = MgCl2, 1 M KCl, pH 7.0, 42°C, pH 7.0
[12] = recombinant, MgCl2, 2 M KCl, pH 7.5, 42°C, pH 7.5
[13] = recombinant, MgCl2, 2 M KCl, pH 7.5, 42°C

“Malic enzyme Mae1 from Haloferax volcanii, recombinant” gave a stoichiometry N [1] of 8.

B1: Mae1 (Haloferax volcanii DS2) (protein)
chain: MGLDDDSRKYHRQDPPGKIEIATTKPTNTQRDLSLAYSPGVAAPCLDIAEDEDAAYEYTAKGNLVGVVSNGSAVLGLGDIGAQASKPVMEGKGVLFKRFADIDVFDVELDIADVDDFVAATKAMEPTFGGINLEDIKAPECFEIERQLREQMDIPVFHDDQHGTAIISGAALLNAADIVDKDLDELDIVFSGAGASALATARFYVSLGAKKENITMCDSSGIITESRVEDGDVNKYKAEFAKPVDEGSLSDAMEGADVLAGLSVGGIVSQEMVRSMADNPVIFAMANPDPEITYEDAKDARDDTVIMATGRSDYPNQVNNVLGFPFIFRGALDVRATEINEAMKRAAAEALAELARQDVPDAVVKAYGDHPLQFGADYVIPKPLDPRVLFEVAPAVAQAAMTSGAARERLDMNAYREELEARLGKSREMMRVVLNKAKSNPKRVALAEGEDEKMIRAAYQMQEEGIAEPILVGETTTILRKAEELGLDFDPTIANPRDGEWDHYVDRLYELRQRKGVTNSEAEELVRRDSNYFASVMVEVGDADAMLTGLTHHYPSALRPPLQIIGTADDADYAAGVYMMTFKNRVVFCADTTVNLDPDEEVLAEITKHTADLARQFNVEPRAALLSYSNFGSVTNEGTRKPRDAAALLQDDPEVDFPVDGEMQADTALVEDILEGTYDFAELDGPANVLVFPNLEAGNIGYKLLQRLGGAEAIGPMLVGMDKPVHVLQRGDEVKDIVNLAATAVVDAQEE
notes: full length with C-terminal PTA domain, Ni-NTA purified, homologous expression in H. volcanii
B1 showed a Km (purified protein [2]) of 650 µM, a Km (purified protein [3]) of 100 µM and a Km (purified protein [4]) of 60 µM.

B2: AMP-forming acetyl-CoA synthetase ACS1 from Haloferax volcanii, recombinant (enzyme, UniProt D4GUW1 1-662, looked up)
chain: MADGDTELEARLVEQEEFEPSEEFVAQANVSDPAVYDEFEENWPDCWERAAEMLDWDEKYDEVLDDSNPPFYEWFTGGKLNVSYNCVDRHVENGDKNRVAIKWEGEHGETRTYTYQDLYREVNEFAAALRDLGVEEDDVVTLYMPMIPELPIAMLACARIGAPHSVVFGGFSAEALATRMNAADSRFLVTCDGYYRRGDPLDHLDKANEGLDGVDHGVDATVVVDRLGDDGFDHDLKGNQHDWDDLLDEHAGERIDPVERDAEDMLFLMYTSGTTGQPKGVKHTTGGYLAYAAWTSHAVLDIEKEDTYWCSADIGWITGHSYIVYGPLALGTTTVMYEGTPDFPNRDRLWDIIEKYAVDIFYTAPTAIRAFMKWGSRFPEQHDLSSLRLLGTVGEPINPRAWKWYYKHIGNEDCPVVDTWWQTETGGMMITTLPGIKKMKPGSAGPPLPGIDAQIVDTSGKQVDAGRAGYLTVNKPWPGMLRTLYKNDERFIQEYWQEYSDTDSDDPDDWVYFPEDGAKIDGDDYITILGRVDDVINVSGHRLGTMEIESAIVGVEGVAEAAVVGGNHEVKGEAVYAYVITEEGQDEDDEMRGRIIEGVEDAIGPIARPEMVVFTPELPKTRSGKIMRRLLEEIANGEELGDTTTLRNPEVVESIQRQVESE
notes: AMP-forming acetyl-CoA synthetase ACS1 of Haloferax volcanii, gene acs1, locus tag HVO_0894; calculated subunit 71.2 kDa; gene amplified from genomic DNA; also called HVO_0894; source: H. volcanii H1209 (plasmid pTA963, homologous overexpression), purified (Ni-NTA, Superdex 200)
For B2, the Km (purified protein [5]; [11]) was 90 µM, the Vmax (purified protein [5]; [11]) was 0.4 µmol/min/mg and the Km (purified protein [6]) was 570 µM. The Vmax (purified protein [6]) was 0.25 µmol/min/mg, the Km (purified protein [7]; MgCl2, 1 M KCl, pH 7.0, 42°C) was 730 µM and the Km (purified protein [8]; MgCl2, 1 M KCl, pH 7.0, 42°C) was 480 µM. For the same molecule, the “stoichiometry N” value [9] was 2.

B3: ACS2 (Haloferax volcanii DS2) (protein)
chain: MKKPLLVTEFLDRARRYYGDEEAVVATTGERFTYDELGERADGFSAALQSRGVEKGDRVAVLDPNTHYHLEAAYGSMQLGAVHMPLNYRLVPADFEYVLNDADVTAVYADYAFAEKIDAVRDEIPAEIFVTNDPEKAAESTDGEWLDFDELVAESTDYERPEMDEDDIITINYTSGTTGDPKGVCRTHRAETIHAYLISMHQDIGDDDVYLWTLPMFHVNGWGHIYAITGHGAKHVCTRGVEAEAVLDAIRDEDVSYLCAAPTVLNILMKHYREEGGVETTGASPVRAATAGAAPPEATIRTVEDEFGWRLMHVYGATETGPLITTSEAGRYLTDGDDRFGVKKKQGIGYLGTDVRVVDEDGTDVPRDEQSVGEIVVTGNQVMEKYWNKPEETEEAFSARLEGYYHMGDLAVVDENGFISIQDRKKDIIISGGENISSIELEDTLFDHDEVADVAVIPVPSDEWGESPKAFVVPTSGDPDAPGVTAEALIAFCRERIATYKVPKEVEFVTELPKTATGKVQKYELREREWEDEGRMMGEG
notes: full length, Ni-NTA purified (pTA963), homologous expression in H. volcanii
For B3, the Km (purified protein [5]; [12]) was 1500 µM, the Vmax (purified protein [5]; [12]) was 1.5 µmol/min/mg and the Km (purified protein [7]; [13]) was 2210 µM. It also gave a Km (purified protein [8]; [13]) of 430 µM.

B4: AMP-forming acetyl-CoA synthetase ACS2 from Haloferax volcanii, recombinant (enzyme, UniProt D4GUW5 1-540, looked up)
chain: MKKPLLVTEFLDRARRYYGDEEAVVATTGERFTYDELGERADGFSAALQSRGVEKGDRVAVLDPNTHYHLEAAYGSMQLGAVHMPLNYRLVPADFEYVLNDADVTAVYADYAFAEKIDAVRDEIPAEIFVTNDPEKAAESTDGEWLDFDELVAESTDYERPEMDEDDIITINYTSGTTGDPKGVCRTHRAETIHAYLISMHQDIGDDDVYLWTLPMFHVNGWGHIYAITGHGAKHVCTRGVEAEAVLDAIRDEDVSYLCAAPTVLNILMKHYREEGGVETTGASPVRAATAGAAPPEATIRTVEDEFGWRLMHVYGATETGPLITTSEAGRYLTDGDDRFGVKKKQGIGYLGTDVRVVDEDGTDVPRDEQSVGEIVVTGNQVMEKYWNKPEETEEAFSARLEGYYHMGDLAVVDENGFISIQDRKKDIIISGGENISSIELEDTLFDHDEVADVAVIPVPSDEWGESPKAFVVPTSGDPDAPGVTAEALIAFCRERIATYKVPKEVEFVTELPKTATGKVQKYELREREWEDEGRMMGEG
notes: AMP-forming acetyl-CoA synthetase ACS2 of Haloferax volcanii, gene acs2, locus tag HVO_0896; calculated subunit 59.8 kDa; gene amplified from genomic DNA; also called recombinant ACS2; HVO_0896; source: H. volcanii H1209 (plasmid pTA963, homologous overexpression), purified (Ni-NTA, size exclusion chromatography)
For B4, the “stoichiometry N” value [9] was 2.

B5: AMP-forming acetyl-CoA synthetase ACS2 purified from acetate-grown Haloferax volcanii cells (enzyme, UniProt D4GUW5 1-540, looked up)
chain: MKKPLLVTEFLDRARRYYGDEEAVVATTGERFTYDELGERADGFSAALQSRGVEKGDRVAVLDPNTHYHLEAAYGSMQLGAVHMPLNYRLVPADFEYVLNDADVTAVYADYAFAEKIDAVRDEIPAEIFVTNDPEKAAESTDGEWLDFDELVAESTDYERPEMDEDDIITINYTSGTTGDPKGVCRTHRAETIHAYLISMHQDIGDDDVYLWTLPMFHVNGWGHIYAITGHGAKHVCTRGVEAEAVLDAIRDEDVSYLCAAPTVLNILMKHYREEGGVETTGASPVRAATAGAAPPEATIRTVEDEFGWRLMHVYGATETGPLITTSEAGRYLTDGDDRFGVKKKQGIGYLGTDVRVVDEDGTDVPRDEQSVGEIVVTGNQVMEKYWNKPEETEEAFSARLEGYYHMGDLAVVDENGFISIQDRKKDIIISGGENISSIELEDTLFDHDEVADVAVIPVPSDEWGESPKAFVVPTSGDPDAPGVTAEALIAFCRERIATYKVPKEVEFVTELPKTATGKVQKYELREREWEDEGRMMGEG
notes: AMP-forming acetyl-CoA synthetase ACS2 of Haloferax volcanii, gene acs2, locus tag HVO_0896; identified by MALDI-TOF MS of the 69 kDa subunit; Native enzyme, no tag; also called HVO_0896
With B5 the “stoichiometry N” value [10] was 2.

B6: AMP-forming acetyl-CoA synthetase ACS9 from Haloferax volcanii, recombinant (enzyme, UniProt D4GRL3 1-538, looked up)
chain: MKKQLLVTDFLDRARTYYGDYEAVVGVDGERFTYAEFGERVDRFSAALQSRGVEKGDRVAVLDPNTHYHLEAAFGAMQCGALHVPLNYRLTTDDYEYLLSDSGATVVYADYQYAGKIEAVRDDVPAEVFVTNDPAAVDGDWLDFEAFLDEADADDYERPEMSEDELITINYTSGTTGDPKGVCRTHRTESLHAQLVTIHHHIGDDDVYLWTLPMFHVNGWGHIYAVTGRGAKHVCTRGVEAEAVFDAITEEDVSFFCCAPTVLSILREYAEEHDPAYAGDNPVRVTAAGSAAPSATIRHTESEFGWEFTQLYGATETGPLIATSDANRLIPDEGGLRFSLKQRQGVAPLGTDLRVVDDDGEQVPRGDATIGEVVVRGNQVMEKYWNKPDETHDAFNDRLEGWYHTGDLAVVNEDGMIAIQDRKKDIIISGGENISSVELEDALFDHDAVGDVAVIPAPSEKWGETPKAFVVPANGDVENPGVTAEELTAYTRDRLAGYKAIREFEFVAEIPKTATGKIQKYELRKREWDDEERMVGQG
notes: 59 kDa subunits; gene amplified from genomic DNA; source: H. volcanii H1209 (plasmid pTA963, homologous overexpression), purified (Ni-NTA, Superdex 200)
With B6 the “stoichiometry N” value [10] was 2.
